Experimental data: paper PMC10008561, “Molecular mechanism of biased signaling at the kappa opioid receptor” (Nature Communications, 2023)

Biological target: T1, BRIL-KOR crystallization construct (human kappa-opioid receptor, residues 1-53 replaced by BRIL, C-terminal … (Homo sapiens, I135L | S324C))
T1 chain: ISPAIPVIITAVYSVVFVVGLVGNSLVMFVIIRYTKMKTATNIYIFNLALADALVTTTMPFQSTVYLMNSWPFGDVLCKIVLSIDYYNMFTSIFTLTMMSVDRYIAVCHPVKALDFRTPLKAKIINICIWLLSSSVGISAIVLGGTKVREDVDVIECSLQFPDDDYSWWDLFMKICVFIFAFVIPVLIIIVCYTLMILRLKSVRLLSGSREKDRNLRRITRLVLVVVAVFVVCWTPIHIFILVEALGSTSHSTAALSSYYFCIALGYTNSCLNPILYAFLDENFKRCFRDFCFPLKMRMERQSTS
Assay: cell-based or functional assay

B1: Nb39 (active-state stabilizing nanobody) (VHH)
VHH: QVQLVESGGGLVRPGGSLRLSCVDSERTSYPMGWFRRAPGKEREFVASITWSGIDPTYADSVADRFTTSRDVANNTLYLQMNSLKHEDTAVYYCAARAPVGQSSSPYDYDYWGQGTQVTVS
**Q.** B1 was tested. Which “increase of the binding affinity of nalfurafine in radioligand competition binding on KOR membranes in the presence of Nb39” value did it give?
**A.** 40 fold
